Reference: publication PMC3192196 (Angewandte Chemie (International Ed. in English), 2011)

Legend:
[1] = biological target: T1, PSMA (Homo sapiens, UniProt Q04609); assay: fluorescence-based PSMA inhibition assay; assay type: biochemical
[2] = electronic absorption and fluorescence spectroscopy; assay type: physicochemical; details: for emission maximum / fluorescence lifetime: aqueous solution; for extinction coefficient: at absorbance maximum 776 nm; for absorbance maximum: electronic spectra; for quantum yield: in PBS
[3] = system: PSMA+ PC3-PIP and PSMA− PC3-flu xenografts; assay: sequential SPECT-CT and optical; assay type: in vivo, severe-combined immune-deficient (SCID) mice
[4] = ex vivo biodistribution, PSMA+ PC3 PIP tumor; assay type: in vivo, severe-combined immune-deficient (SCID) mice; details: SCID, mouse, PSMA+ PC3-PIP tumor
[5] = system: PSMA+ PC3-PIP xenografts; assay: ex vivo biodistribution, PSMA+ PC3 PIP tumor; assay type: in vivo, severe-combined immune-deficient (SCID) mice; details: for PIP:flu uptake ratio: PSMA+ PIP to PSMA− flu tumor
[6] = biological target: T1, PSMA; assay: blocking of uptake with ZJ43; assay type: in vivo; details: blocking dose 50 mg/Kg ZJ43 (Figure S9)
[7] = in vivo; details: SCID, mouse, PSMA− PC3-flu tumor
[8] = ex vivo biodistribution, normal tissues; details: for tissue uptake at 1 h / tissue uptake at 2 h / tissue uptake at 5 h / tissue uptake at 24 h: SCID, mouse

T1 sequence (Q04609 whole entry): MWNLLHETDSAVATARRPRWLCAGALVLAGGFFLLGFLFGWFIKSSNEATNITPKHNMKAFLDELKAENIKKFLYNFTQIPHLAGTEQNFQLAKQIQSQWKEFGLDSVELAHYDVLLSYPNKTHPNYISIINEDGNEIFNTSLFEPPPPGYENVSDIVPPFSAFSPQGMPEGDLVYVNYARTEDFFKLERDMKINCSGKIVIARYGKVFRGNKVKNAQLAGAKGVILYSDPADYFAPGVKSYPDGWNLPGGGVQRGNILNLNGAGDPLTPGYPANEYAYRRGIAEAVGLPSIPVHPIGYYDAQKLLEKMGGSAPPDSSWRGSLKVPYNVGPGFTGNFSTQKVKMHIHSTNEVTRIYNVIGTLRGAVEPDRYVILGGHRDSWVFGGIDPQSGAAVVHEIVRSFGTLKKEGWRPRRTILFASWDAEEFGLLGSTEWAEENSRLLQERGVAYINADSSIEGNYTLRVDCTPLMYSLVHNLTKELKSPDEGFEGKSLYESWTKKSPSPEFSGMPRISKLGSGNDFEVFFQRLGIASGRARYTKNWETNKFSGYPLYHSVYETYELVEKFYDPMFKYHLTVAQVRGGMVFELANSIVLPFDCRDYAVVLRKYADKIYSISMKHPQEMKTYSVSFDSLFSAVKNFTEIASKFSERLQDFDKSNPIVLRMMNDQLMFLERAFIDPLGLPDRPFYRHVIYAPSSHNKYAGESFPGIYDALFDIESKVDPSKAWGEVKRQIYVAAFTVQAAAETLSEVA

With `CC1(C)C(=CC=C2CCCC(C=CC3=[N+](CCCCS(=O)(=O)O)c4ccc(S(=O)(=O)[O-])cc4C3(C)C)=C2Oc2ccc(S(=O)(=O)O)cc2)N(CCCCCC(=O)NCCCC[C@H](NC(=O)CN2CCN(CC(=O)O)CCN(CC(=O)O)CCN(CC(=O)O)CC2)C(=O)N[C@@H](CCCCNC(=O)CCCCCCC(=O)NCCCC[C@H](NC(=O)N[C@@H](CCC(=O)O)C(=O)O)C(=O)O)C(=O)O)c2ccc(S(=O)(=O)O)cc21` (single isomer, unassigned) [Compound 1] the “PSMA inhibition, in words” value [1] was “potent inhibitors of PSMA”, the emission maximum [2] was 792 nm and the fluorescence lifetime [2] was 420 psec. For the same molecule, the extinction coefficient [2] was 181,000 M^−1cm^−1, the absorbance maximum [2] was 776 nm and the quantum yield [2] was ~ 8.9%.
For `CC1(C)C(=CC=C2CCCC(C=CC3=[N+](CCCCS(=O)(=O)O)c4ccc(S(=O)(=O)[O-])cc4C3(C)C)=C2Oc2ccc(S(=O)(=O)O)cc2)N(CCCCCC(=O)NCCCC[C@H](NC(=O)CN2CCN(CC(=O)O)CCN(CC(=O)O)CCN(CC(=O)O)CC2)C(=O)N[C@@H](CCCCNC(=O)CCCCCCC(=O)NCCCC[C@H](NC(=O)N[C@@H](CCC(=O)O)C(=O)O)C(=O)O)C(=O)O)c2ccc(S(=O)(=O)O)cc21` (single isomer, unassigned) [[^111In]1, metal not drawn], the “radiotracer uptake on in vivo imaging” value ([3]; 37 MBq IV, imaged repeatedly over two days) was “Intense radiotracer uptake was seen only in the PSMA+ PIP tumors and in the kidneys”, the “tumor visualization by NIRF imaging” value ([3]; single injection of ~0.22 μg (0.1 nmol)) was “able to visualize tumor with NIRF imaging” and the tissue uptake at 1 h [4] was 13.9 ± 1.9 %ID/g. It also gave a tissue uptake at 2 h [4] of 13.3 ± 2.4 %ID/g, a tissue uptake at 5 h [4] of 16.4 ± 3.7 %ID/g and a tissue uptake at 24 h [4] of 14.6 ± 1.3 %ID/g. For the same molecule, the “PIP:flu uptake ratio” value ([5]; 1h) was 6.7, the “PIP:flu uptake ratio” value ([5]; 2h) was 6.3 and the “PIP:flu uptake ratio” value ([5]; 5h) was 8.7. The “PIP:flu uptake ratio” value ([5]; 24h) was 7.4, the “binding and accumulation in PSMA+ PC3-PIP xenografts, in words” value ([5]; biodistribution, up to 24 h) was “PSMA dependent binding in PSMA+ PC3-PIP xenografts with rapid accumulation at the tumor site that persisted throughout the course of the experiment” and the “blocking of uptake in PSMA+ PC3 PIP tumor and kidney by ZJ43” value [6] was “effective blocking in PSMA+ PC3 PIP tumor and kidney”. The tissue uptake at 1 h [7] was 2.1 ± 0.7 %ID/g, the tissue uptake at 2 h [7] was 2.1 ± 0.5 %ID/g and the tissue uptake at 5 h [7] was 1.9 ± 0.2 %ID/g. The tissue uptake at 24 h [7] was 2 ± 0.2 %ID/g, the “tissues with highest uptake at 1 h” value ([8]; 1 h) was “The blood, spleen, gastrointestinal tract, kidney and bladder displayed the highest uptake at 1 h” and the “kidney clearance, in words” value ([8]; 1 h to 24 h) was “Steady clearance from the kidneys”. The tissue uptake at 1 h ([8]; bladder) was 4.1 ± 1.7 %ID/g, the tissue uptake at 2 h ([8]; bladder) was 2.7 ± 1 %ID/g and the tissue uptake at 5 h ([8]; bladder) was 1.1 ± 0.6 %ID/g. It also gave a tissue uptake at 24 h ([8]; bladder) of 2 ± 0.5 %ID/g, a tissue uptake at 1 h ([8]; blood) of 9.9 ± 5 %ID/g and a tissue uptake at 2 h ([8]; blood) of 7.1 ± 1.2 %ID/g. The tissue uptake at 5 h ([8]; blood) was 4.1 ± 0.8 %ID/g, the tissue uptake at 24 h ([8]; blood) was 0.9 %ID/g and the tissue uptake at 1 h ([8]; heart) was 3.3 ± 0.5 %ID/g. It also gave a tissue uptake at 2 h ([8]; heart) of 1.8 ± 0.3 %ID/g, a tissue uptake at 5 h ([8]; heart) of 1.8 ± 0.1 %ID/g and a tissue uptake at 24 h ([8]; heart) of 0.8 ± 0.1 %ID/g. For the same molecule, the tissue uptake at 1 h ([8]; kidney) was 104 ± 9.4 %ID/g, the tissue uptake at 2 h ([8]; kidney) was 97.1 ± 13 %ID/g and the tissue uptake at 5 h ([8]; kidney) was 122 ± 21.6 %ID/g. For the same molecule, the tissue uptake at 24 h ([8]; kidney) was 48.1 ± 17.7 %ID/g, the tissue uptake at 1 h ([8]; large intestine) was 1.5 ± 0.5 %ID/g and the tissue uptake at 2 h ([8]; large intestine) was 1.3 ± 0.3 %ID/g. The tissue uptake at 5 h ([8]; large intestine) was 0.8 ± 0.5 %ID/g, the tissue uptake at 24 h ([8]; large intestine) was 2 ± 0.4 %ID/g and the tissue uptake at 1 h ([8]; liver) was 2.4 ± 0.1 %ID/g. It also gave a tissue uptake at 2 h ([8]; liver) of 2.2 %ID/g, a tissue uptake at 5 h ([8]; liver) of 3.2 ± 1.2 %ID/g and a tissue uptake at 24 h ([8]; liver) of 3.1 ± 0.4 %ID/g. For the same molecule, the tissue uptake at 1 h ([8]; muscle) was 1.2 ± 0.6 %ID/g, the tissue uptake at 2 h ([8]; muscle) was 0.7 ± 0.2 %ID/g and the tissue uptake at 5 h ([8]; muscle) was 0.9 ± 0.2 %ID/g. For the same molecule, the tissue uptake at 24 h ([8]; muscle) was 0.4 %ID/g, the tissue uptake at 1 h ([8]; pancreas) was 2.1 ± 0.1 %ID/g and the tissue uptake at 2 h ([8]; pancreas) was 1.3 ± 0.3 %ID/g. The tissue uptake at 5 h ([8]; pancreas) was 2 ± 1 %ID/g, the tissue uptake at 24 h ([8]; pancreas) was 1 ± 0.3 %ID/g and the tissue uptake at 1 h ([8]; small intestine) was 1.8 ± 0.5 %ID/g. For the same molecule, the tissue uptake at 2 h ([8]; small intestine) was 1.5 ± 0.2 %ID/g, the tissue uptake at 5 h ([8]; small intestine) was 1.6 ± 0.3 %ID/g and the tissue uptake at 24 h ([8]; small intestine) was 2 ± 0.7 %ID/g. The tissue uptake at 1 h ([8]; spleen) was 11.3 ± 3.7 %ID/g, the tissue uptake at 2 h ([8]; spleen) was 6.8 ± 0.9 %ID/g and the tissue uptake at 5 h ([8]; spleen) was 4.8 ± 2.4 %ID/g. The tissue uptake at 24 h ([8]; spleen) was 8.2 ± 5.4 %ID/g, the tissue uptake at 1 h ([8]; stomach) was 1.4 ± 0.3 %ID/g and the tissue uptake at 2 h ([8]; stomach) was 1.2 ± 0.1 %ID/g. It also gave a tissue uptake at 5 h ([8]; stomach) of 2.4 ± 1.8 %ID/g and a tissue uptake at 24 h ([8]; stomach) of 1 ± 0.1 %ID/g.
For `CC1(C)C(=CC=C2CCCC(C=CC3=[N+](CCCCS(=O)(=O)O)c4ccc(S(=O)(=O)[O-])cc4C3(C)C)=C2Oc2ccc(S(=O)(=O)O)cc2)N(CCCCCC(=O)NCCCC[C@H](NC(=O)CN2CCN(CC(=O)O)CCN(CC(=O)O)CCN(CC(=O)O)CC2)C(=O)N[C@@H](CCCCNC(=O)CCCCCCC(=O)NCCCC[C@H](NC(=O)N[C@@H](CCC(=O)O)C(=O)O)C(=O)O)C(=O)O)c2ccc(S(=O)(=O)O)cc21` (single isomer, unassigned) [[^113/^115In]1], the “PSMA inhibition, in words” value [1] was “potent inhibitors of PSMA”, the emission maximum [2] was 792 nm and the fluorescence lifetime [2] was 483 psec. The extinction coefficient [2] was 181,000 M^−1cm^−1, the “spectral properties of 1 versus [^113/^115In]1, in words” value ([2]; comparison of 1 and [^113/^115In]1) was “did not observe any significant changes in the spectral properties” and the absorbance maximum [2] was 776 nm. The quantum yield [2] was ~ 8.9%.
